We go through 167 variants from the RNAGym collection of RNA variant scans (doi:10.7554/elife.80360).

Sequences and labels used below:
B1: CPEB3 Ribozyme (parent)
chain: GGGGGCCACAGCAGAAGCGUUCACGUCGCGGCCCCUGUCAGAUUCUGGUGAAUCUGCGAAUUCUGCUGU

Variants of B1 are the subject of this data set. Put plainly: self-cleavage, relative activity (ratio to wild type); higher = more cleavage; co-transcriptional.
Turning to G41U, the self-cleavage stood at 0.928. Turning to G41C, the self-cleavage turned out to be 0.891. For the variant A40C C57U, the self-cleavage worked out at 0.287.

Regarding U38G U46G, the self-cleavage is 0.308. Turning to G41U G65C, the self-cleavage was found to be 0.272. In the case of C39A G48U, the self-cleavage was found to be 0.903. With C39A G48C the figure was 0.912; with C39U A42U, 0.736; with A40G U62A, 0.837.

As for A40G U62G, the self-cleavage was determined as 0.858. Turning to A40G C45G, the self-cleavage was 0.942. Consider G41C U49G, for which the self-cleavage is 0.899. For the variant A40C A60G, the self-cleavage came to 0.225.

Turning to A40C A60C, the self-cleavage was 0.34. As for C39G U49G, the figure is 0.994; as for C39U U49C, 0.927; as for U38C U46G, 0.921. Regarding U38C G47C, the self-cleavage turned out to be 0.938. On to C39G U61C, for which the self-cleavage is 0.394.

For the variant C39A G41A, the self-cleavage worked out at 0.383.

In the case of C39A G41C, the self-cleavage turned out to be 0.396. In the case of G41C U53G, the self-cleavage was determined as 0.552. As to C39G U67G, the self-cleavage was 0.965. With C39G U67A, the self-cleavage turned out to be 0.927. Regarding C39A U43G, the self-cleavage was determined as 0.295. G41C U55G: the self-cleavage is 0.369. In the case of G41C U55A, the self-cleavage was determined as 0.549. In the case of A40U G48A, the self-cleavage turned out to be 0.977.

On to G41C G47C, for which the self-cleavage is 0.939. For G41C G47U, the self-cleavage came to 0.935. In the case of C39U G65C, the self-cleavage turned out to be 0.438. Regarding C39U U53A, the self-cleavage worked out at 0.582. On to A40G U64C, for which the self-cleavage was found to be 0.737. In the case of A40G U64G, the self-cleavage was found to be 0.796. Regarding G41A G68A, the self-cleavage turned out to be 0.979.

On to G41C C63U, for which the self-cleavage was 0.685. On to G41C C63G, for which the self-cleavage is 0.382.

For the variant C39G G50A, the self-cleavage is 0.962. Turning to C39G G50U, the self-cleavage came to 0.957.

Turning to U38G G50A, the self-cleavage was 0.204. As to U38G G50C, the self-cleavage was determined as 0.161. C39U G47U: the self-cleavage came to 0.973. With C39U G47A, the self-cleavage was 0.948. On to G41A G47A, for which the self-cleavage worked out at 0.979. As to G41A G47U, the self-cleavage worked out at 0.98.

In the case of A40C A59U, the self-cleavage is 0.381. As for C39U C66G, the figure is 0.579; as for C39A U69C, 1.01.

Regarding C39A U69A, the self-cleavage came to 0.908.

Consider G41A U49A, for which the self-cleavage was determined as 0.885. As to G41C C57G, the self-cleavage was 0.249. Take G41C C57A: the self-cleavage is 0.285. As to C39U U44G, the self-cleavage stood at 0.693. In the case of C39U U44C, the self-cleavage is 0.514. Regarding C39A C45G, the self-cleavage is 0.659. For the variant A42C A60C, the self-cleavage worked out at 0.503. With U38C G50U the figure was 0.952; with G41A U55C, 0.491; with G41U C57A, 0.303. With G41U C57U the figure was 0.243. On to G41U C57G, for which the self-cleavage was 0.328. As for G41U G48A, the figure is 0.998; as for U38G U62G, 0.183; as for U38G U62A, 0.291. Turning to A40C G48A, the self-cleavage amounted to 0.882.

Turning to A40C G48C, the self-cleavage came out at 0.716.

For the variant C39G U43C, the self-cleavage stood at 0.75. Regarding A40U G50U, the self-cleavage was determined as 0.749. Take C39U A40U: the self-cleavage was found to be 0.624. As for U38G G48A, the self-cleavage is 0.21. As for G41A U53C, the self-cleavage stood at 0.318. Consider U38G A60C, for which the self-cleavage was found to be 0.137.

On to A40C U64C, for which the self-cleavage is 0.357. Regarding A40C U64G, the self-cleavage worked out at 0.403. As for U38G A51G, the self-cleavage was 0.258. On to U38G A51U, for which the self-cleavage was 0.295. In the case of G41A C63A, the self-cleavage turned out to be 0.329. With G41C C54A, the self-cleavage was found to be 0.931.

In the case of G41C C54G, the self-cleavage came to 0.98. Take G41C C54U: the self-cleavage worked out at 0.906. As for A42C A59C, the figure is 0.528; as for A42C A59G, 0.961.

As to A42C A59U, the self-cleavage is 0.633. For U38C G41U, the self-cleavage came out at 0.705. In the case of C39U C57G, the self-cleavage amounted to 0.403. Turning to C39U C57A, the self-cleavage came out at 0.34. Turning to U38G C54U, the self-cleavage worked out at 0.29. As for U38G C54G, the figure is 0.302; as for G41U U62G, 0.391; as for C39G U46C, 0.903.

Take A40C G47C: the self-cleavage is 0.794. In the case of U38G C57G, the self-cleavage worked out at 0.121. Turning to U38C U62A, the self-cleavage is 0.791.

On to A40U C63A, for which the self-cleavage stood at 0.364.

For U38C U64A, the self-cleavage turned out to be 0.772. Consider C39A G68A, for which the self-cleavage amounted to 0.925. With G41U G56C, the self-cleavage is 0.357. In the case of G41U G56U, the self-cleavage is 0.343. Regarding G41A C45G, the self-cleavage was found to be 0.537. For the variant G41A C45A, the self-cleavage amounted to 0.37. With U38G G65C the figure was 0.161; with A40C A52U, 0.365. As for A40C A52C, the self-cleavage is 0.347. Take C39A U49G: the self-cleavage was 0.928. With C39A U49C, the self-cleavage worked out at 0.811. For the variant A40U G56C, the self-cleavage was 0.475. As for A40U G56U, the figure is 0.552; as for G41U U44C, 0.366.

Turning to C39U A51G, the self-cleavage amounted to 0.892. With C39U A51C, the self-cleavage worked out at 0.737. Consider C39A G58C, for which the self-cleavage came out at 0.907. For G41U A51C, the self-cleavage is 0.588. As for A40C G50A, the figure is 0.423; as for A40C G50C, 0.424; as for C39U C45G, 0.74.

In the case of C39U C45A, the self-cleavage worked out at 0.759.

With G41U U67G, the self-cleavage was determined as 0.865. Turning to G41U U67A, the self-cleavage stood at 0.888. As for G41U U49A, the figure is 0.97.

Take G41U U49G: the self-cleavage came out at 0.848.

Take U38C G48C: the self-cleavage was found to be 0.986. As for U38C G48U, the self-cleavage was 1.

For G41A U67C, the self-cleavage came out at 0.818.

For U38C U43G, the self-cleavage was found to be 0.866. In the case of U38C U67G, the self-cleavage came out at 0.925. In the case of A40G A59U, the self-cleavage came out at 0.691. As for G41C U69A, the self-cleavage came to 0.932. As to A40U A60G, the self-cleavage worked out at 0.47. With C39A U62C the figure was 0.595; with C39A U62G, 0.428; with U38G C63U, 0.229.

Take U38G C63G: the self-cleavage came to 0.224. As to U38G C39U, the self-cleavage worked out at 0.322. As to U38G C39G, the self-cleavage came to 1.01. On to U38C U61G, for which the self-cleavage is 0.759. With U38C U61A, the self-cleavage came to 0.759. U38G G47C: the self-cleavage was 0.201. On to A40C G58A, for which the self-cleavage stood at 0.659. For G41C U61A, the self-cleavage was found to be 0.484. As for U38G U44A, the figure is 0.149. For the variant G41U G50A, the self-cleavage turned out to be 0.704. As for G41U G50U, the self-cleavage turned out to be 0.845. For C39U G56U, the self-cleavage amounted to 0.922. Turning to U38C U49A, the self-cleavage is 0.955. As for G41C U62A, the figure is 0.294; as for G41C U67C, 0.776. As to A40U U64C, the self-cleavage was 0.388. For A40G A42C, the self-cleavage was determined as 0.81.

For A40C G68C, the self-cleavage worked out at 0.749. With A40C G68U the figure was 0.806.

Regarding G41C G56C, the self-cleavage stood at 0.417.

In the case of A42C A51C, the self-cleavage is 0.832. As for A42C A51U, the figure is 0.952; as for C39A A51U, 0.728. For the variant G41A U64A, the self-cleavage was found to be 0.419. For C39A U61A, the self-cleavage is 0.601. As for G41A A42U, the self-cleavage was 0.49. For the variant A40C A51C, the self-cleavage turned out to be 0.359.

G41C U46C: the self-cleavage stood at 0.63. As for G41C U46G, the figure is 0.855; as for G41U A52U, 0.526.

For G41A A51C, the self-cleavage is 0.483. For G41A A51G, the self-cleavage worked out at 0.797. For G41U C63G, the self-cleavage stood at 0.43.

For the variant G41U C63A, the self-cleavage is 0.37. As for A40G U44A, the self-cleavage came to 0.907. Take C39U G48C: the self-cleavage is 0.939.
